Reference: paper PMC10919400

Tests used:
human plasmin = human plasmin (UniProt P00747); experiment: whole-bacteria Pln binding; bound Pln activity measured with chromogenic substrate (VALY); details: +Pln: S. suis is incubated with Pln; parent: est. 100; read off a plot
human plasminogen = experiment: whole-bacteria Plg binding; bound Plg converted to Pln with tPA, Pln activity measured with chromogenic substrate (VALY); details: +Plg/+tPA: S. suis is incubated with Plg and tPA; parent: est. 100; read off a plot

Chain of UniProt P00747 (P00747 581-810, chain 1 of 2): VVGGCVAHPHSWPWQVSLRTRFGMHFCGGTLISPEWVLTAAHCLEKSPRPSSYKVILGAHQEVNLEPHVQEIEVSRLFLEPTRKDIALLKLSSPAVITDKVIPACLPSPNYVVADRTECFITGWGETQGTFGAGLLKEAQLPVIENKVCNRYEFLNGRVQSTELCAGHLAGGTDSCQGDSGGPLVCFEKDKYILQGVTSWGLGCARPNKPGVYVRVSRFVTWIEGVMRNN
Chain of UniProt P00747 (P00747 581-810, chain 2 of 2): as the sequence (P00747 581-810, chain 1 of 2) above

Substance	percent of parent (% of wild-type) (human plasmin)	percent of parent (% of wild-type) (human plasminogen)
Streptococcus suis P1/7 enolase, wild type, on intact bacteria (from UniProt A4W2T1) K261A	56	58
Streptococcus suis P1/7 enolase, wild type, on intact bacteria (from UniProt A4W2T1) K252A; K261A	50	57
Streptococcus suis P1/7 enolase, wild type, on intact bacteria (from UniProt A4W2T1) K252A; E253G; K255A	63	55
Streptococcus suis P1/7 enolase, wild type, on intact bacteria (from UniProt A4W2T1) K434A; K435A	46	55
